Measurements from the supplement of paper PMC9732359.
± gives the uncertainty stated by the source.

Experiment: protein stability index of a GFP-peptide fusion (yeast GPS) (PSI 1-4); higher = more stable; sorted into four equal gates, so the index is relative within each strain
Outline: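 Tiled 17-residue yeast protein peptides were fused downstream of GFP in a plasmid that also expresses Cherry, and the pooled library was carried in yeast. Mid-log cultures in leucine-free medium were sorted into four equal gates by GFP/Cherry fluorescence ratio, and plasmids from each gate were PCR-amplified and Illumina-sequenced, with reads assigned to strains by barcodes. The protein stability index for each peptide was each gate's read frequency times its gate number, summed.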

Sequence | protein stability index (doa10∆) | protein stability index (pdr5∆) | protein stability index (san1∆) | protein stability index (ubr1∆)
GAEDPKVLINDQLSTIS [SWI1] | 3.27 ± 0.18 | 3.24 ± 0.25 | 3.32 ± 0.21 | –
KEKYGLAVSTILGKNFD [SMC1] | 2.98 ± 0.07 | 2.82 ± 0.066 | 2.69 ± 0.057 | 2.58 ± 0.05
AGSGSTFIYGYCDKNFR [PRE3] | 1.24 ± 0.085 | 1.42 ± 0.057 | 1.51 ± 0.099 | 1.49 ± 0.059
GKDCKLQNLQRIIRKKI [RRI2] | 2.98 ± 0.092 | 3.51 ± 0.14 | 3.14 ± 0.096 | 3.05 ± 0.13
KLHMGTDDVRLAPELNQ [RPL31A] | 3.11 ± 0.12 | 3.25 ± 0.083 | 3.13 ± 0.083 | 3.09 ± 0.052
LKLLKENIIQMEMIENR [FAS1] | 1.87 ± 0.065 | 2.27 ± 0.094 | 1.32 ± 0.12 | 1.93 ± 0.074
VDKSRKVAHTSYKRIYG [PRE8] | 3.31 ± 0.11 | 3.13 ± 0.13 | 3.28 ± 0.17 | 3.13 ± 0.093
TNWARTTFRNEYGKHDF [MED8] | 2.82 ± 0.097 | 2.56 ± 0.079 | 2.91 ± 0.088 | 3.55 ± 0.19
NNLHELWALLNFLLPDI [ISW2] | 2.59 ± 0.052 | 2.07 ± 0.049 | 1.89 ± 0.07 | 2.63 ± 0.041
KNREVVQVSKAGGLPMD [RRP45] | 3.04 ± 0.11 | 2.84 ± 0.097 | 2.54 ± 0.095 | 3.28 ± 0.067
AELLVLKILKQVMEEKL [PUP2] | 2.73 ± 0.16 | 2.75 ± 0.087 | 2.69 ± 0.24 | 2.56 ± 0.24
YLEELERKKQSDVLRFL [RPL15B] | 1.34 ± 0.16 | 2.23 ± 0.22 | 1.44 ± 0.25 | 1.54 ± 0.1
SSDGAYTEQFQHYKNNS [SSN2] | 2.99 ± 0.068 | 3.03 ± 0.056 | 3.02 ± 0.066 | 3.06 ± 0.05
YGLFLKYHKEQFIKSNF [SRB8] | 2.15 ± 0.067 | 2.29 ± 0.045 | 1.97 ± 0.069 | 2.36 ± 0.054
GLSTDHTTQIVNLEDNT [YML103C/NUP188] | 2.89 ± 0.074 | 2.99 ± 0.078 | 2.88 ± 0.053 | 3.04 ± 0.047
EKRWNDELELEDAIHIA [PRE8] | 3.35 ± 0.17 | 3.25 ± 0.1 | 3.26 ± 0.13 | 3.23 ± 0.2
AALGMGLCMLGTGKPEA [RPN2] | 3.46 ± 0.13 | 3.32 ± 0.094 | 3.44 ± 0.066 | 3.36 ± 0.088
SAEDEENIIQRLQAANS [CDC53] | 3.15 ± 0.081 | 3.4 ± 0.066 | 3.15 ± 0.048 | 3.02 ± 0.065
PPKEGNYEIVFDTVSNK [YMR129W/POM152] | 3.11 ± 0.086 | 3.13 ± 0.095 | 3.29 ± 0.26 | 3 ± 0.1
NADFQKPWFATVNGQAR [FAS1] | 2.41 ± 0.066 | 2.37 ± 0.11 | 2.45 ± 0.082 | 2.87 ± 0.1
TRTVITDWDPQFNAITG [SMC2] | 2.96 ± 0.099 | 2.99 ± 0.083 | 2.67 ± 0.1 | 2.76 ± 0.098
NIGQQQVKKPRKQRVKK [SWI1] | 3.47 ± 0.12 | 3.35 ± 0.13 | 3.42 ± 0.084 | 3.48 ± 0.11

Sequence | protein stability index (doa10∆) | protein stability index (pdr5∆) | protein stability index (san1∆) | protein stability index (ubr1∆)
LDLANSGDESNVISSKD [YDL116W/NUP84] | 3.31 ± 0.09 | 3.31 ± 0.067 | 3.25 ± 0.051 | 3.26 ± 0.063
IILHFANFGEILEDFRV [YMR153W/NUP53] | 2.7 ± 0.1 | 2.65 ± 0.084 | 2.85 ± 0.062 | 2.85 ± 0.16
MKATSNTLEEFEHGRTP [FAS2] | 2.8 ± 0.08 | 2.56 ± 0.16 | 1.38 ± 0.15 | 3.66 ± 0.12
GLIPADATFAGHSLGEY [FAS1] | 3.01 ± 0.087 | 3.21 ± 0.06 | 3.08 ± 0.11 | 3.03 ± 0.059
LTRNAPLDSKDENFASV [SNF2] | 3.04 ± 0.08 | 3.2 ± 0.079 | 3.07 ± 0.067 | 3.1 ± 0.074
KEPVDDKDVKAKYETSI [FAS2] | 3.2 ± 0.086 | 3.21 ± 0.12 | 2.43 ± 0.12 | 2.83 ± 0.13
ALQDKEITSVLSNLHES [SNF12] | 2.93 ± 0.083 | 3.43 ± 0.13 | 2.94 ± 0.064 | 3.13 ± 0.056
PGIISITSLQDSSSQCI [YMR129W/POM152] | 2.86 ± 0.076 | 3.04 ± 0.074 | 3 ± 0.066 | 3.14 ± 0.085
ARILGTRALQISMNAPV [RPO26] | – | 1.45 ± 0.24 | – | 1.39 ± 0.13
LEKGNNPSVKQGEVGAV [SWP82] | 2.89 ± 0.076 | 3.13 ± 0.083 | 3.44 ± 0.052 | 2.7 ± 0.074
DVNEKIRFRIEREVFVD [RPC25] | 1.81 ± 0.074 | 1.29 ± 0.066 | 1.56 ± 0.13 | 1.2 ± 0.044
CFVHRYKDVSDLIRSES [IRR1] | 2.67 ± 0.082 | 2.7 ± 0.061 | 2.89 ± 0.056 | 2.89 ± 0.06
YKENEAMLRENIEVILS [SNF12] | 2.42 ± 0.053 | 2.73 ± 0.071 | 2.84 ± 0.046 | 2.53 ± 0.057
QDVQRTCILHGPVAAQF [FAS1] | 2.12 ± 0.078 | 2.54 ± 0.057 | 2.02 ± 0.08 | 2.44 ± 0.044
ALIENKKAKLVLIANDV [RPL8A] | 2.76 ± 0.1 | 2.51 ± 0.093 | 2.56 ± 0.12 | 2.46 ± 0.12
ALEEGLNEEAVIFLSSL [YJL039C/NUP192] | 3.28 ± 0.1 | 3.05 ± 0.062 | 3 ± 0.07 | 2.99 ± 0.065
EEGRAIPGEYVTYALSG [RPS21A] | – | – | 2.81 ± 0.19 | 2.96 ± 0.16
LKKSEEIINNKTSSQTS [YMR153W/NUP53] | 3.08 ± 0.12 | 3.4 ± 0.15 | 3.03 ± 0.13 | 3.19 ± 0.069
VMEYDVKFYEIFNFDQL [SRB8] | 1.97 ± 0.11 | 1.9 ± 0.12 | 1.66 ± 0.13 | 1.74 ± 0.1
KQFLTKDLKFPLPHRVQ [RPL20A] | 2.67 ± 0.075 | 2.78 ± 0.057 | 2.86 ± 0.057 | 2.78 ± 0.046
PGTGKTLLARAVAHHTD [RPT6] | 1.78 ± 0.05 | 2.76 ± 0.06 | 1.53 ± 0.11 | 1.49 ± 0.057
FQSQQRRKDTSMVLFFV [RPB9] | 1.55 ± 0.083 | 1.57 ± 0.14 | 1.62 ± 0.16 | 1.46 ± 0.044
